“And” between values parts separate entries of the source, which are not always exact repeats. Equal entries are not always repeated.
What was measured:
[1] = biological target: T1, human CD3 on cells (Jurkat cells, human T cells) (human, UniProt P07766 23-207); experiment: flow cytometry on Jurkat cells, APC anti-human IgG secondary antibody
T1 construct: whole, on cells
Experimental: The Jurkat cells were thawed, washed, and cultured in an incubator. Jurkat cells were washed and 1×10⁵ Jurkat cells/well were aliquoted into 96-well plate and incubated with test articles for 1 hour at 4° C. After centrifugation and washing, Jurkat cells were further incubated with the secondary antibody APC anti-Human IgG for 30 minutes at 4° C. After centrifugation and washing, the Jurkat cells labelled with antibodies were re-suspended in 2% FBS DPBS and then were analyzed by FACS.

[2] = biological target: T1, human CD3 on cells (Jurkat cells, human …); experiment: cell-based or functional assay

T1 sequence (P07766 23-207): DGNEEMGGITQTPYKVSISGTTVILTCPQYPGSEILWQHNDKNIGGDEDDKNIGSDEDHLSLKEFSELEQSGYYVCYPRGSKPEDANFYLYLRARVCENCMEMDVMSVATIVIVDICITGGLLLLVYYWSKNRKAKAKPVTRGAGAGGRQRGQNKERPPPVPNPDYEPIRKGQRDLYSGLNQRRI

EC50 (read off the curve) [1]: ~700 pM and ~300 pM and ~500 pM and ~600 pM
Jurkat NFAT reporter assay EC50 [2]: 20 pM
Masking efficiency (Jurkat NFAT reporter assay) [2]: 1 fold
B1: TAC2225 (antibody, V domains shown)
VH: EVQLVESGGGLVQPGGSLRLSCAASGFTFNTYAMNWVRQAPGKGLEWVGRIRSKYNNYATYYADSVKGRFTISRDDSKNTLYLQMNSLRAEDTAVYYCVRHGNFGNSYVSWFAYWGQGTLVTVSS
VL: QAVVTQEPSLTVSPGGTVTLTCGSSTGAVTTSNYANWVQQKPGQAPRGLIGGTNKRAPGVPARFSGSLLGGKAALTLSGAQPEDEAEYYCALWYSNLWVFGGGTKLTVL
notes: also called parental cross-reactive anti-CD3 antibody; humanized SP34

Source: patent US20250326860A1 (ADAGENE PTE, published 2025)
